Key:
[1] = target: T1, E. coli (K12) FimH, wild type, on the surface of E. coli (Escherichia coli (K12), UniProt P08191 22-300); assay: immunofluorescence microscopy of E. coli +/- FimH exposed to recombinant HMGB1, stained with anti-HMGB1 antibody
T1 construct: whole, on cells; also called FimH-WT; fimbrial protein H

[2] = target: T1, E. coli (K12) FimH, wild type, on the …; assay: flow cytometry of FimH+ or FimH- E. coli (K12) treated with Box A protein and stained with anti-HIS antibody

T1 sequence (P08191 22-300): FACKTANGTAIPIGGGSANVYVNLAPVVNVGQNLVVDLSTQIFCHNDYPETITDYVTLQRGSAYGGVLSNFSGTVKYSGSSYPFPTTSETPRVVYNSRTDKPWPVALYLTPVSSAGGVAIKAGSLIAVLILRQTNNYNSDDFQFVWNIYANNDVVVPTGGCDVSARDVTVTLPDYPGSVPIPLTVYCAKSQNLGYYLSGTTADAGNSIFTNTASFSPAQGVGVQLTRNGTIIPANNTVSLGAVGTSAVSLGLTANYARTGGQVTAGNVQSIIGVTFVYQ

B1: High mobility group box 1 (HMGB1), recombinant human HMGB1 produced in mammalian cells (other)
chain: MGKGDPKKPRGKMSSYAFFVQTCREEHKKKHPDASVNFSEFSKKCSERWKTMSAKEKGKFEDMAKADKARYEREMKTYIPPKGETKKKFKDPNAPKRPPSAFFLFCSEYRPKIKGEHPGLSIGDVAKKLGEMWNNTAADDKQPYEKKAAKLKEKYEKDIAAYRAKGKPDAAKKGVVKAEKSKKKKEEEEDEEDEEDEEEEEDEEDEDEEEDDDDE
notes: also called recombinant HMGB1; full-length HMGB1 protein
[1]
  binding result: binds

B2: Box A protein, truncation mutant composed of aa 2-97 of HMGB1 (other)
chain: GKGDPKKPRGKMSSYAFFVQTCREEHKKKHPDASVNFSEFSKKCSERWKTMSAKEKGKFEDMAKADKARYEREMKTYIPPKGETKKKFKDPNAPKR
notes: The position of the His tag is unknown; also called Box A from HMGB1; not shown: His tag implied by detection with anti-HIS antibody
[2]
  binding result: binds

Source: patent US20200282017A1 (CLEVELAND CLINIC FOUNDATION, published 2020)
